The target of assay [1] is T1, human OX40 on cells (human, UniProt P43489 29-277).
T1 sequence: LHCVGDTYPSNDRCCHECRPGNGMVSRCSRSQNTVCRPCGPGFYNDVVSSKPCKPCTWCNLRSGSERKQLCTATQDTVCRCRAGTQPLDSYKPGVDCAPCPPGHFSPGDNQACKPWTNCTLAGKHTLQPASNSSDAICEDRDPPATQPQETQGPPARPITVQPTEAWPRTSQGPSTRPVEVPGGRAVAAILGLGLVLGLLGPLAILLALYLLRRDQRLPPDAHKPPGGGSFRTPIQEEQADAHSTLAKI
The experiment in a line: cell-based or functional assay.

Assay [2] addresses T1, human OX40 on cells. The assay can be described thus: cell-based or functional assay. The source holds these as a separate data set.
In assay [3] the target is T1, human OX40 on cells. The experiment in a line: flow cytometry, activated human CD4 T cells. In general terms: In flow cytometry, cells or beads pass a laser one at a time.
Assay [4] addresses T2, cynomolgus OX40 on activated cynomolgus PBMC (cynomolgus, UniProt P43489 29-214 (human entry)).
T2 construct: whole, on cells
T2 chain: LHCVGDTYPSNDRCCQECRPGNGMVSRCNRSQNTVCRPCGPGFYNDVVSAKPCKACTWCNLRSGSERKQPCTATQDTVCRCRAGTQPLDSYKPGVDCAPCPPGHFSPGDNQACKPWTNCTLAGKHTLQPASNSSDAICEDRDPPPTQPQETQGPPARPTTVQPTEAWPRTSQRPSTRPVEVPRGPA
The experiment in a line: flow cytometry, activated cynomolgus CD4 T cells.

In assay [5] the target is recombinant cynomolgus OX40 Fc(kih) (cynomolgus, UniProt P0DOX5 223-449 = IgG part, biotin on C-terminal Avi tag where used biotinylated). The experiment in a line: SPR, captured IgG, cyno OX40 Fc(kih) analyte. (SPR reads the build-up and loss of mass on a sensor chip optically.)
Assay [6] concerns the target T3, recombinant human OX40 His (human).
T3 construct: ectodomain with avi and hexahistidine tag; also called human Ox40 avi His
T3 chain: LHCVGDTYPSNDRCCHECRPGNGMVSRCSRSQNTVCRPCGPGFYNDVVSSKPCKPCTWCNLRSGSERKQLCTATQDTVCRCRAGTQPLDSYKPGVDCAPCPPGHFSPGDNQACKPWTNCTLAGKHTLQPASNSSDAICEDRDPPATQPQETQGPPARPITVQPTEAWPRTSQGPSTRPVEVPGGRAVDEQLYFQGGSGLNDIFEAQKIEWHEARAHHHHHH
The experiment in a line: SPR, captured IgG, OX40 His analyte.

Assay [7] addresses recombinant murine OX40 Fc(kih) (murine, UniProt P0DOX5 223-449 = IgG part, biotin on C-terminal Avi tag). The experiment in a line: SPR avidity format, murine OX40 Fc(kih) on SA chip.
The target of assay [8] is T4, recombinant human OX40 Fc(kih) (human, UniProt P0DOX5 223-449 = IgG part, biotin on C-terminal Avi tag where used biotinylated).
T4 construct: antigen Fc knob chain plus Fc hole chain; also called monomeric human OX40 antigen Fc(kih) fusion; biotinylated human OX40
The assay can be described thus: SPR, captured IgG, OX40 Fc(kih) analyte.

Assay [9] concerns the target T5, dimeric human OX40 Fc fusion with a C-terminal Ha tag (human).
T5 construct: also called recombinant human Ox40 Fc; huOx40-Fc
The assay can be described thus: SPR, OX40 Fc held on OX40 ligand.

The target of assay [10] is T6, recombinant murine OX40 (cleaved by AcTEV digestion) (murine, UniProt P47741 20-211).
T6 construct: Fc removed from murine OX40 Fc(kih)
T6 sequence: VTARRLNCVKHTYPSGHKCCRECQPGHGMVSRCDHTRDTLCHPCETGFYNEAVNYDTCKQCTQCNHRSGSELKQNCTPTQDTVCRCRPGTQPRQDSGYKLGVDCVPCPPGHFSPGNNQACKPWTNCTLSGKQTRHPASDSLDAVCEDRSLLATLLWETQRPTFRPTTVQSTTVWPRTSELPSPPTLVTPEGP
The assay can be described thus: SPR, captured IgG, AcTEV-cleaved murine OX40 analyte.

Assay [11] addresses T7, recombinant human GITR Fc(kih) (human, UniProt P0DOX5 223-449 = IgG part, biotin on C-terminal Avi tag where used biotinylated).
T7 construct: also called hu GITR-Fc; human monomeric GITR-Fc fusion
The assay can be described thus: SPR, GITR Fc(kih) on SA chip, FAP second analyte.

The target of assay [12] is T8, human FAP (His-tagged ectodomain) (human, UniProt Q12884 27-760).
T8 construct: SPR texts say 'human FAP' or 'His-tagged ... dimeric FAP'; also called hu FAP; human FAP (analyte 2)
The assay can be described thus: SPR, GITR Fc(kih) on SA chip, FAP second analyte.

Assay [13] deals with T9, human GITR on HEK cells (HEK-GITR) (human, UniProt Q9Y5U5 26-241).
T9 construct: also called cell surface expressed human GITR
T9 sequence: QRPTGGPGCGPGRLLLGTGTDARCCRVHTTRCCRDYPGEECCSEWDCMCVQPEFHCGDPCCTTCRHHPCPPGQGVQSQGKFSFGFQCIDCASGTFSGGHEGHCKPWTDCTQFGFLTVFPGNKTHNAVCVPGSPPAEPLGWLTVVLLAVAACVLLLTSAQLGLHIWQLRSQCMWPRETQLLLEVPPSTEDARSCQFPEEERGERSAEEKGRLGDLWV
The assay can be described thus: flow cytometry, HEK-GITR.

The target of assay [14] is T10, human fibroblast activation protein (huFAP) on cells (human, UniProt Q12884 1-760).
T10 construct: also called NIH/3T3-huFAP clone 39; NIH/3T3-huFAP clone 19
The assay can be described thus: flow cytometry, 3T3-huFAP.

Assay [15] has as its target T4, recombinant human OX40 Fc(kih). The experiment in a line: phage display, Fab ELISA. (ELISA stands for enzyme-linked immunosorbent assay.)
Assay [16] deals with T11, human 4-1BB on cells (human, UniProt Q07011 24-255).
T11 construct: also called HeLa-hu4-1BB-NF-kB-luc clone 26
The experiment in a line: flow cytometry, activated human CD8+ T cells.

Assay [17] has as its target T10, human fibroblast activation protein …. The experiment in a line: flow cytometry, NIH/3T3-huFAP clone 19.
The target in assay [18] is T11, human 4-1BB on cells. The experiment in a line: cell-based or functional assay.
In assay [19] the target is recombinant cynomolgus 4-1BB Fc(kih) (cynomolgus, UniProt P0DOX5 223-449 = IgG part, biotin on C-terminal Avi tag where used biotinylated). The assay can be described thus: SPR, captured IgG, cyno 4-1BB Fc(kih) analyte.
Assay [20] addresses T12, recombinant human 4-1BB Fc(kih) (human, UniProt P0DOX5 223-449 = IgG part, biotin on C-terminal Avi tag where used biotinylated).
T12 construct: also called hu4-1BB; biotinylated human 4-1BB
The assay can be described thus: SPR, captured IgG, 4-1BB Fc(kih) analyte.

Assay [21] concerns the target T11, human 4-1BB on cells. The experiment in a line: flow cytometry, activated human CD8 T cells.
In assay [22] the target is T11, human 4-1BB on cells. The experiment in a line: cell-based or functional assay. The source holds these as a separate data set.
For assay [23], the target named is mouse 4-1BB on activated mouse splenocytes (mouse, UniProt P20334 24-256). The experiment in a line: flow cytometry, activated mouse T cells.
In assay [24] the target is T13, cynomolgus 4-1BB on activated cynomolgus PBMC (cynomolgus, UniProt Q07011 24-255 (human entry)).
T13 chain: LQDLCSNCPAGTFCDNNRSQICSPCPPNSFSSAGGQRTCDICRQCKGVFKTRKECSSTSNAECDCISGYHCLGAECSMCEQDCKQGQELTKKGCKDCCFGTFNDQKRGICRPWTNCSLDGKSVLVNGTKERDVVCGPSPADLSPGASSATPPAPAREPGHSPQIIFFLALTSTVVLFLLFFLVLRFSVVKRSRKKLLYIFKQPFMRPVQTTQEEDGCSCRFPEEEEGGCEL
The assay can be described thus: flow cytometry, activated cynomolgus PBMC.

For assay [25], the target named is T14, recombinant murine 4-1BB Fc(kih) (murine, UniProt P0DOX5 223-449 = IgG part, biotin on C-terminal Avi tag where used biotinylated).
T14 construct: also called mu4-1BB
The assay can be described thus: phage display, Fab screening.

Numbering of substitutions follows the chain as printed.

Consider seven molecules from patent publication US20220073646A1 (Hoffmann-La Roche, published 2022).

By EC50 is commonly meant the concentration that produces a half-maximal response. Read a low EC50 as greater potency. The term Kd denotes a measure of binding affinity in units of concentration. One may read the koff as a measure of how fast the partners let go of each other. By kon is commonly meant the second-order rate constant of association.

mouse 4-1BB on activated mouse splenocytes, sequence (P20334 24-256 limits assumed): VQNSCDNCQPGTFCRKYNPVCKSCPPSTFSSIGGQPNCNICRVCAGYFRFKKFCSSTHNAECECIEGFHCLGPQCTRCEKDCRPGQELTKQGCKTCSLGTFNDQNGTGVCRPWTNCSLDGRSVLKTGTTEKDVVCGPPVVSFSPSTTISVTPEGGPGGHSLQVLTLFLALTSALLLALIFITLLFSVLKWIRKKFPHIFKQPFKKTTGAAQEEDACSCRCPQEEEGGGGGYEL

B1: 20B7 P329GLALA IgG1 (antibody, V domains shown)
VH: QVQLVQSGAEVKKPGSSVKVSCKASGGTFSSYAISWVRQAPGQGLEWMGGIIPIFGTANYAQKFQGRVTITADKSTSTAYMELSSLRSEDTAVYYCARVNYPYSYWGDFDYWGQGTTVTVSS
VL: DIQMTQSPSTLSASVGDRVTITCRASQSISSWLAWYQQKPGKAPKLLIYDASSLESGVPSRFSGSGSGTEFTLTISSLQPDDFATYYCQQYQAFSLTFGQGTKVEIKR
notes: anti-OX40
Consider B1, for which the “EC50 of rescuing suboptimal TCR stimulation with plate-immobilized anti-OX40 binder (preactivated human CD4 T cells)” value in assay [1] worked out at 0.09 nM. For the same molecule, in assay [2], the “EC50 of NFκB activation in HeLa_hOx40_NFκB_luc1 reporter cells with secondary anti-human IgG Fcγ antibody” value was determined as 2.27 nM. Besides, the EC50 in [3] came out at 1.64 nM; in assay [4] it was 1.52 nM. Further, the Kd was 1100 nM in assay [5], 5.6 nM in assay [6], 42 nM in [8] and 360 nM in assay [10]. The koff in [5] is 0.0166 s⁻¹; in assay [6] it was 0.00066 s⁻¹; in assay [8], 0.0013 s⁻¹; in assay [10], 0.018 s⁻¹. Also, the kon amounted to 15700 M⁻¹ s⁻¹ in [5], 120000 M⁻¹ s⁻¹ in assay [6], 32000 M⁻¹ s⁻¹ in [8] and 49000 M⁻¹ s⁻¹ in assay [10]. Also, the binding result in assay [7] and in [9] was “binds” throughout.

B2: (GITR-FAP) [8A06] 4+1 construct (bispecific antibody, human IgG1, lambda, L234A L235A)
heavy 1: not shown
heavy 2: not shown
light: SSELTQDPAVSVALGQTVRITCQGDSLRSYYASWYQQKPGQAPVLVIYGKNNRPSGIPDRFSGSSSGNTASLTITGAQAEDEADYYCNSPQTSGSAVFGGGTKLTVLGQPKAAPSVTLFPPSSEELQANKATLVCLISDFYPGAVTVAWKADSSPVKAGVETTTPSKQSNNKYAASSYLSLTPEQWKSHRSYSCQVTHEGSTVEKTVAPTECS
Take B2: the binding result in assay [11] was “binds”.

B3: (GITR-FAP) [8A06] 4+2 construct (bispecific antibody, human IgG1, lambda, L234A L235A)
heavy: not shown
light 1: B2 light
light 2: EIVLTQSPGTLSLSPGERATLSCRASQSVSRSYLAWYQQKPGQAPRLLIIGASTRATGIPDRFSGSGSGTDFTLTISRLEPEDFAVYYCQQGQVIPPTFGQGTKVEIKSSASTKGPSVFPLAPSSKSTSGGTAALGCLVKDYFPEPVTVSWNSGALTSGVHTFPAVLQSSGLYSLSSVVTVPSSSLGTQTYICNVNHKPSNTKVDKKVEPKSC
Take B3: the binding result in [12] and in assay [14] was “binds” in each case. Also, in [13], the response was half-maximal at 3.85 nM (EC50).

B4: clone 17A9 Fab (Fab, V domains shown)
VH: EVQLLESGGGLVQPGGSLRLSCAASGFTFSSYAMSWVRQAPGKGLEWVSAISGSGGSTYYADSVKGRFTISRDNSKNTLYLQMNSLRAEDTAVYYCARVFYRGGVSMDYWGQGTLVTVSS
VL: SSELTQDPAVSVALGQTVRITCQGDSLRSYYASWYQQKPGQAPVLVIYGKNNRPSGIPDRFSGSSSGNTASLTITGAQAEDEADYYCNSRVMPHNRVFGGGTKLTV
notes: phage library Fab with CH1/CL and tags
For the molecule B4, the binding result in [15] is on record as “binds”.

B5: 12B3/FAP P329GLALA IgG1 2+2 (bispecific antibody)
heavy: not shown
light 1: not shown
light 2: EIVLTQSPGTLSLSPGERATLSCRASQSVSRSYLAWYQQKPGQAPRLLIIGASTRATGIPDRFSGSGSGTDFTLTISRLEPEDFAVYYCQQGQVIPPTFGQGTKVEIKSSASTKGPSVFPLAPSSKSTSGGTAALGCLVKDYFPEPVTVSWNSGALTSGVHTFPAVLQSSGLYSLSSVVTVPSSSLGTQTYICNVNHKPSNTKVDKKVEPKSCD
notes: also called 12B3×FAP (28H1) 2+2
B5: the concentration giving a half-maximal response (EC50) in [16] stood at 2 nM; in assay [17] it was 12.2 nM. Further, in [18], the “EC50 of NFκB/luciferase activation, 4-1BB reporter HeLa with NIH/3T3-huFAP clone 19” value came to 0.2 nM.

B6: 9B11 P329GLALA IgG1 (antibody, V domains shown)
VH: QVQLVQSGAEVKKPGSSVKVSCKASGGTFSSYAISWVRQAPGQGLEWMGGIIPIFGTANYAQKFQGRVTITADKSTSTAYMELSSLRSEDTAVYYCARSSGAYPGYFDYWGQGTTVTVSS
VL: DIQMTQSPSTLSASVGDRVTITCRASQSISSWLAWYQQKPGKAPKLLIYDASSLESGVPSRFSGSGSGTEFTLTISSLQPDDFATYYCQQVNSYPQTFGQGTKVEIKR
notes: anti-4-1BB
Consider B6, for which the Kd in assay [19] was 78 nM; in [20], 140 nM. Further, the koff in assay [19] worked out at 0.002 s⁻¹; in [20], 0.0039 s⁻¹. The kon is 26000 M⁻¹ s⁻¹ in assay [19] and 27000 M⁻¹ s⁻¹ in assay [20]. Moreover, the midpoint of the response in assay [21], the EC50, lay at 4.49 nM. In [22], the “EC50 of increase of IFNγ secretion in activated CD8+ T cells (surface-immobilized IgG)” value turned out to be 0.12 nM. Also, the values for the binding result in [23] and in assay [24] were “no binding” and “binds”, respectively.

B7: clone 20G2 Fab (Fab, V domains shown)
VH: B6 VH with S100Y, G101Y, A102W, Y103E, P104S, G105Y, Y106P
VL: DIQMTQSPSTLSASVGDRVTITCRASQSISSWLAWYQQKPGKAPKLLIYDASSLESGVPSRFSGSGSGTEFTLTISSLQPDDFATYYCQQQHSYYTFGQGTKVEIK
notes: as for B4
B7: in [25], the binding result is “binds”.
